Data on two molecules can be found in patent publication US20210079107A1 (Novartis, published 2021).

Several values for one entry are separate records, joined by “and”; a condition that tells them apart may be missing. Equal values may be shown once.

One assay addresses T1, recombinant human CD40 (human, UniProt P25942 21-193).
T1 construct: Soluble analyte in SPR; also called CD40 antigen
In words: SPR (Biacore T100), antibody captured on Protein A, CD40 as analyte, 25 °C, 1:1 model. From the text:
A typical binding analysis cycle consisted of three steps: (i) capture of the antibody via ProteinA immobilized on the chip surface, (ii) binding of CD40 antigen to the captured anti-CD40 antibody, and (iii) regeneration of the ProteinA surface. To determine the kinetic rate constants of the antigen-antibody binding interactions, binding data were processed, double referenced with responses from blank injections. The binding curves were fitted locally using the 1:1 interaction model of the Biacore T100 Evaluation software to determine kinetic rate constants. The value for the equilibrium dissociation constant (KD) was calculated as the ratio of the rate constants kd/ka. All binding measurements were performed in two independent experiments.

In assay [1] the target is T2, human FcγRIIIA 158F extracellular domain (human, UniProt P08637 17-199, site directed biotinylated with BirA (Avi tag)).
T2 construct: range 17-199; not shown: 4-amino acid purification tag (4APP; Novartis)
T2 sequence (P08637 other isoform, or with tags, fused parts or gaps): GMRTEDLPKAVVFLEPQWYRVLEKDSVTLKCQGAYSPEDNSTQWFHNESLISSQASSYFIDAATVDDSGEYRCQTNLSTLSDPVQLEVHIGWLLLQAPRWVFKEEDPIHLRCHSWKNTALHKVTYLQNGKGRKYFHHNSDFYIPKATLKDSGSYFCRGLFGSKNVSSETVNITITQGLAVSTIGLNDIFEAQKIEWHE
In words: SPR (T100), biotinylated receptor on streptavidin chip, equilibrium binding, 1:1 model. From the text:
(§1) Extracellular domains of human FcγRIIIA tagged with a 4-amino acid purification tag (4APP; Novartis) and an Avi biotinylation tag ([…]; Avidity) were synthesized by Geneart: human FcγRIIIA (CD16a) 158V (Uniprot: P08637, 17-199), human FcγRIIIA 158F (Uniprot: P08637, 17-199), expressed in HEK293 cells and purified with anti-4APP affinity chromatography. Receptors were site directed biotinylated with BirA (Avidity), bound to streptavidin sensor chips (General Electric), and the equilibrium-binding levels of the different Abs were analyzed by surface plasmon resonance (T100, General Electric) as described (Warncke et al. 2012). Equilibrium dissociation constants (KD) were calculated by a 1:1 model.

Assay [2] addresses T3, human CD40 on cells (CD20+ B cells of whole blood/PBMCs, tonsil B cells, moDCs, RI-1 B cell line) (human, UniProt P25942 21-277). In words: cell-based or functional assay.
Assay [3] has as its target T3, human CD40 on cells (CD20+ B cells of …). In words: cell-based or functional assay. The source holds these as a separate data set.
The target in assay [4] is T4, rhesus monkey CD40 on CD20+ B cells (rhesus, UniProt F6SNI1 21-278). In words: cell-based or functional assay.
Assay [5] addresses T5, cynomolgus monkey CD40 on CD20+ B cells (cynomolgus, UniProt G7PG38 21-278). In words: cell-based or functional assay.
Assay [6] concerns the target T3, human CD40 on cells (CD20+ B cells of …). In words: cell-based or functional assay. The source holds these as a separate data set.
Assay [7] has as its target T6, human FcγRIIIA (CD16a) 158V extracellular domain (human, UniProt P08637 17-199, site directed biotinylated with BirA (Avi tag)).
T6 construct: range 17-199; 158 is the usual mature numbering of the V/F allotype; also called Human FcγRIIIA 158V; not shown: 4-amino acid purification tag (4APP; Novartis)
In words: SPR, biotinylated receptor on streptavidin chip, equilibrium binding.
Text: as §1

Assay [8] concerns the target T2, human FcγRIIIA 158F extracellular domain. Described as above.
Text: as §1

Assay [9] concerns the target T3, human CD40 on cells (CD20+ B cells of …). In words: flow cytometry, CD40 occupancy by CFZ533 (MFI EC50 on CD20+ cells), human, n = 4. (In general: Flow cytometry measures light scatter and fluorescence of single cells or particles in a stream.)
The target of assay [10] is T4, rhesus monkey CD40 on CD20+ B cells. In words: flow cytometry, CD40 occupancy by CFZ533 (MFI EC50 on CD20+ cells), rhesus, n = 6.
For assay [11], the target named is T5, cynomolgus monkey CD40 on CD20+ B cells. In words: flow cytometry, CD40 occupancy by CFZ533 (MFI EC50 on CD20+ cells), cynomolgus, n = 4.
The target in assay [12] is T3, human CD40 on cells (CD20+ B cells of …). In words: flow cytometry, CD40 occupancy by CFZ533 (MFI EC50 on CD20+ cells), human, n = 4; human CD20+ cells, n = 4.

T3 sequence (P25942 21-277 limits assumed): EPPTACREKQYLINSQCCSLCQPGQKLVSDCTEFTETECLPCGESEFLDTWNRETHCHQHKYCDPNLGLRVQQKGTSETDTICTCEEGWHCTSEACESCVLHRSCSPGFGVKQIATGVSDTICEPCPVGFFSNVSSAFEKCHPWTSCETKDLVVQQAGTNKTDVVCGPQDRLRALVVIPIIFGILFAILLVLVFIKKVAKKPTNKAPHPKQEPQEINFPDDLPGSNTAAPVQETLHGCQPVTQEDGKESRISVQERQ
T1 sequence (P25942 21-193 limits assumed): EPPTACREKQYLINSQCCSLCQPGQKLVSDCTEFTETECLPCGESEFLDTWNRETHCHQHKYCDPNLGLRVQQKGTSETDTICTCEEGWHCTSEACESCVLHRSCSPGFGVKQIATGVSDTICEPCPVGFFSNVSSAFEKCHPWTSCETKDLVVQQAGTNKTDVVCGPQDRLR
T6 sequence (P08637 other isoform, or with tags, fused parts or gaps): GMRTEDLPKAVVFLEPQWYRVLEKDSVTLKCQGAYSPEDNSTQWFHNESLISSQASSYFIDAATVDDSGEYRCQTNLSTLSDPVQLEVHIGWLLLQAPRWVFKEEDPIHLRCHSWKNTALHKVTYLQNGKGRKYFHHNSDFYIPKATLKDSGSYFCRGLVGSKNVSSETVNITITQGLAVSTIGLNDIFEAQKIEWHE

B1: HCD122 (wild-type IgG1 version of CFZ533) (antibody)
heavy: not shown
light: DIVMTQSPLSLTVTPGEPASISCRSSQSLLYSNGYNYLDWYLQKPGQSPQVLISLGSNRASGVPDRFSGSGSGTDFTLKISRVEAEDVGVYYCMQARQTPFTFGPGTKVDIRRTVAAPSVFIFPPSDEQLKSGTASVVCLLNNFYPREAKVQWKVDNALQSGNSQESVTEQDSKDSTYSLSSTLTLSKADYEKHKVYACEVTHQGLSSPVTKSFNRGEC
notes: it calls it the parental antibody and the wild-type IgG1 version of CFZ533 (N297A IgG1); It is built here as the CFZ533 chains with Asn in place of the Ala of N297A; 297 is a constant-region number; also called parental antibody
Broadly, the Kd is the free concentration of one partner at which half of the binding sites on the other are occupied at equilibrium, for simple one-to-one binding. As a reminder, the koff is the rate constant with which the complex falls apart. What is called kon is the second-order rate constant of association. With B1, in the assay with recombinant human CD40, the Kd stood at 467 pM, the koff is 0.000126 s⁻¹ and the on-rate constant (kon) was found to be 284000 M⁻¹ s⁻¹. The same molecule came in with a Ka in assay [1] of 699000 M⁻¹.

B2: CFZ533 (antibody, human IgG1, kappa, N297A)
heavy: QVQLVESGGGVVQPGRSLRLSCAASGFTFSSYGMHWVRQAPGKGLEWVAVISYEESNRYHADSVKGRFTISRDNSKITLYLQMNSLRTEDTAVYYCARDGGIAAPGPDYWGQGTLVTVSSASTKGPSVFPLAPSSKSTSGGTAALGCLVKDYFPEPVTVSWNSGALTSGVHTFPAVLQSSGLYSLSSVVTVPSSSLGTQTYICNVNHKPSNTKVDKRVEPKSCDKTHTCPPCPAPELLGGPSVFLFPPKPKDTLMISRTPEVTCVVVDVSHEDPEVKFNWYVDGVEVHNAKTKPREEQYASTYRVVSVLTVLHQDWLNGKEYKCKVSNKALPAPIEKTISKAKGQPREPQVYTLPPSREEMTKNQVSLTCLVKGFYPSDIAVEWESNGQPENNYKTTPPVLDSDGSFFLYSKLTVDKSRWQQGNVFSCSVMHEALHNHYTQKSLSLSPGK
light: DIVMTQSPLSLTVTPGEPASISCRSSQSLLYSNGYNYLDWYLQKPGQSPQVLISLGSNRASGVPDRFSGSGSGTDFTLKISRVEAEDVGVYYCMQARQTPFTFGPGTKVDIRRTVAAPSVFIFPPSDEQLKSGTASVVCLLNNFYPREAKVQWKVDNALQSGNSQESVTEQDSKDSTYSLSSTLTLSKADYEKHKVYACEVTHQGLSSPVTKSFNRGEC
notes: In the receptor occupancy and internalisation assays it was labelled with AlexaFluor 488; also called mAb1; iscalimab
What is called EC50 is the concentration giving half of the maximal effect. On to B2, for which the “IC50, rCD154-induced TNF production by primary monocyte-derived dendritic cells (moDCs)” value in assay [2] was 0.04 µg/ml and 0.27 nM. Besides, the “IC50, rCD154-induced proliferation of human whole blood cultures” value in assay [2] is 0.024 µg/ml and 0.16 nM. Moreover, the “IC50, rCD154-induced proliferation of purified tonsillar B cells” value in assay [2] was 0.47 nM and 0.071 µg/ml. Besides, the “Inhibition of rCD154-induced proliferation (IC50 PBMCs)” value was determined as 0.017 µg/mL in assay [3], 0.026 µg/mL in [4] and 0.01 µg/mL in [5]. Also, the “IC50 (read off the curve): rCD154-induced CD69 expression on CD20pos B cells, human whole blood” value in [6] was ~0.1 µg/mL. For the same molecule, the binding result in [7] and in assay [8] was “no binding” in each case. Further, the EC50 worked out at 0.22 µg/mL in assay [9], 0.22 µg/mL in assay [10], 0.2 µg/mL in [11] and 1490 pM in assay [12]. Moreover, the equilibrium dissociation constant (Kd) in the assay with recombinant human CD40 came to 305 pM. Also, in the assay with recombinant human CD40, the koff was 9.3e-05 s⁻¹. Also, the kon with recombinant human CD40 was 313000 M⁻¹ s⁻¹.
